Data: publication PMC4934914, “Crystal Structure of Bacillus subtilis Cysteine Desulfurase SufS and Its Dynamic Interaction with Frataxin and Scaffold Protein SufU” (PLoS ONE, 2016)
Each block holds one binder with its values, some of them ahead of it.

B1: Bacillus subtilis cysteine desulfurase SufS (enzyme)
chain: MNITDIREQFPILHQQVNGHDLVYLDSAATSQKPRAVIETLDKYYNQYNSNVHRGVHTLGTRATDGYEGAREKVRKFINAKSMAEIIFTKGTTTSLNMVALSYARANLKPGDEVVITYMEHHANIIPWQQAVKATGATLKYIPLQEDGTISLEDVRETVTSNTKIVAVSHVSNVLGTVNPIKEMAKIAHDNGAVIVVDGAQSTPHMKIDVQDLDCDFFALSSHKMCGPTGVGVLYGKKALLENMEPAEFGGEMIDFVGLYESTWKELPWKFEAGTPIIAGAIGLGAAIDFLEEIGLDEISRHEHKLAAYALERFRQLDGVTVYGPEERAGLVTFNLDDVHPHDVATVLDAEGIAVRAGHHCAQPLMKWLDVTATARASFYLYNTEEEIDKLVEALQKTKEYFTNVF
modifications: pyridoxal-5'-phosphate bound to Lys224 as an aldimine; Cys361-persulfide (in the crystal)
notes: cysteine desulfurase SufS of Bacillus subtilis; The structure 'could be built to completeness'; also called BsSufS
B2: Bacillus subtilis scaffold protein SufU (natural protein)
chain: MSFNANLDTLYRQVIMDHYKNPRNKGVLNDSIVVDMNNPTCGDRIRLTMKLDGDIVEDAKFEGEGCSISMASASMMTQAIKGKDIETALSMSKIFSDMMQGKEYDDSIDLGDIEALQGVSKFPARIKCATLSWKALEKGVAKEEGGN
notes: Fe-S cluster scaffold protein SufU of Bacillus subtilis; also called BsSufU

Tests used:
[1] = molecular target: the molecule itself; assay: crystal structure; BsSufS crystallised at 20 mg/ml in 0.1 M HEPES pH 7.5, 50% (v/v) PEG 400, 20°C; one molecule in the asymmetric unit, homodimer across the crystallographic symmetry axis; 1.7 Å
[2] = molecular target: B1; assay: HDX-MS; 60 μM of each component in 25 mM Tris-Cl pH 7.5, 100 mM NaCl; exchange in D2O buffer at 25°C for 15, 30, 60 or 600 s; online pepsin digestion; settings: both partners purified
[3] = molecular target: B1; assay: MST; labelled BsFra (0.25 μM) mixed 1:1 with a dilution series of the partner (560 μM to 0.030 μM); 25 mM Tris-Cl, 100 mM NaCl, 10 mM 2-mercaptoethanol, pH 7.5; 25°C; Hill model; average of three measurements; settings: both partners purified
[4] = molecular target: B2; assay: as above; settings: both partners purified
BsSufS/BsSufU complex = molecular target: T1, BsSufS/BsSufU complex (Bacillus subtilis, UniProt O32164 1-406; O32163 1-147); assay: as above; settings: both partners purified
T1 construct: cysteine desulfurase SufS of Bacillus subtilis, as the chain of m1; scaffold protein SufU of Bacillus subtilis, as the chain of m2; SufS is described as a homodimer; also called BsSufU/BsSufS; SufS/SufU complex; copies: 2 +

[5] = molecular target: B2; assay: HDX-MS; 60 μM of each component in 25 mM Tris-Cl pH 7.5, 100 mM NaCl; exchange in D2O buffer at 25°C for 15, 30, 60 or 600 s; online pepsin digestion; settings: both partners purified

Binder: B1
stoichiometry N [1]: 2

Binder: B2
binding result [2]: binds

Kd [3]: 50.6 ± 17.4 µM | Kd [4]: 57.4 ± 13.8 µM | Kd (BsSufS/BsSufU complex): 32.5 ± 3.6 µM
B3: fluorophore-labelled BsFra (natural protein, Bacillus subtilis)
chain: MDVFSEYLAGIADPFHRERTEEVLTWIKNKYPNLHTEIKWNQPMFTDHGTFIIGFSVSKKHLAVAPEKVTIAHVEDDIVKAGYDYTEQLIRIPWNGPVDYTLLEKMIEFNILDKADCSTFWRK
modifications: labelled with the Monolith NT.115 Protein Labeling Kit RED MALEIMID (cysteine-reactive)
notes: frataxin homolog Fra (formerly YdhG) of Bacillus subtilis, as the chain of m3; Same protein as m3, with a red fluorophore on cysteine for MST; also called labeled BsFra; fluorophore-tagged frataxin

binding result [2]: binds | binding result [5]: binds
B4: Bacillus subtilis frataxin homolog Fra (natural protein)
chain: MDVFSEYLAGIADPFHRERTEEVLTWIKNKYPNLHTEIKWNQPMFTDHGTFIIGFSVSKKHLAVAPEKVTIAHVEDDIVKAGYDYTEQLIRIPWNGPVDYTLLEKMIEFNILDKADCSTFWRK
notes: frataxin homolog Fra (formerly YdhG) of Bacillus subtilis; Unlabelled form, used in H/DX and activity assays; also called BsFra; YdhG (former name)
